According to patent publication US20120108492A1, “LIGAND-SPECIFIC NON-ANTIBODY COMPOUNDS THAT INHIBIT CR2 ACTIVATION AND METHODS OF USE THEREOF” (The Regents of the University of Colorado, priority 2008, published 2012):

T1: wild-type MBP-CR2 SCR1-2 (human), P20023
T1 chain: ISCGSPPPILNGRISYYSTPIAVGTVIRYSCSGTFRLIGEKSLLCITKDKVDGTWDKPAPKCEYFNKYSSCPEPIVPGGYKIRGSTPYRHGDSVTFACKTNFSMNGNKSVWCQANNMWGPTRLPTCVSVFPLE


Molecular target: T1, wild-type MBP-CR2 SCR1-2 (human), P20023
Experiment: not given
CSEGSLKGC (modifications not checked) [peptide EBV gp350 cp1] was tested, and the IC50 was 150 µM.

Molecular target: T1, wild-type MBP-CR2 SCR1-2 (human), P20023
Experiment: competition ELISA: C3d on plate, MBP-CR2 SCR1-2 with increasing peptide, ⅓×PBS
Binder APQHLSSQYSRT (modifications not checked) [peptide C3dp1] has an IC50 of 100 µM. In the case of IATANPRHHSTA (modifications not checked) [peptide C3dp2.3], the IC50 is reported as 160 µM. Work on APQALSSQYSRT (modifications not checked) [peptide C3dp1.1] yielded an IC50 of 70 µM. In the case of APAHLSSQ (modifications not checked) [control peptide], the IC50 is reported as 700 µM. Binder ISTSNPRAASTA (modifications not checked) [peptide C3dp2.1] has an IC50 of 150 µM. ISTSNPRH (modifications not checked) [peptide C3dp2.2] showed an IC50 of 190 µM. DPKNHVH (modifications not checked) [peptide C3dcp1.1] gave an IC50 of 95 µM. Work on ISTSNPRHHSTA (modifications not checked) [peptide C3dp2] yielded an IC50 of 450 µM. APQHLSSQ (modifications not checked) [peptide C3dp1.3] showed an IC50 of 40 µM. In the case of TRSYQSSLHQPA (modifications not checked) [peptide C3dp1.2], the IC50 is reported as 70 µM.
